These results are taken from publication PMC4347215.

This assay deals with recombinant CA/09 NA, thrombin-cleaved (His-tag depleted) (influenza A virus A/California/07/2009 (H1N1)pdm09) (UniProt C3W5S3). The assay is described as follows: crystal structure.

On to “recombinant CA/09 NA, thrombin-cleaved (His-tag depleted) (from UniProt C3W5S3 82-467) (enzyme)”, for which the stoichiometry N came out at 4.

As a reminder, the stoichiometry N is the number of molecules, sites or subunits per partner or assembly.
